# Results taken from PMC7948472.
# Read-outs that look alike come from different tables or passages of the source. Where no end group is shown, it is not given here. Me3 = trimethyl-lysine
# Experiments:
# Fab C9 (rabbit) [1] = assay: SPR; Biacore T200; each Fab immobilised on a CM5 chip by amine coupling; peptides injected at increasing concentrations; running buffer PBS with 0.005% Tween 20; global fitting of the curves, or steady-state analysis where kinetic parameters could not be determined (fast dissociation, low affinity)
# Fab D6 (rabbit) [2] = assay: as above
# C9 Fab (rabbit) = assay: SPR; Biacore T200; each Fab immobilised on a CM5 chip by amine coupling; increasing concentrations of free peptide injected; running buffer PBS with 0.005% Tween 20; global fit, steady-state analysis where dissociation was fast
# D6 Fab (rabbit) = assay: as above
# E6 Fab (rabbit) = assay: as above
# F9 Fab (rabbit) = assay: as above
# Fab E10 (rabbit) [3] = assay: SPR; Biacore T200; each Fab immobilised on a CM5 chip by amine coupling; peptides injected at increasing concentrations; running buffer PBS with 0.005% Tween 20; global fitting of the curves, or steady-state analysis where kinetic parameters could not be determined (fast dissociation, low affinity)
# Fab E6 (rabbit) = assay: as above
# Fab F9 (rabbit) = assay: as above
# Fab E10 (rabbit) [4] = assay: as above; remark: listed apart in the source
# F9, C9, E6, and D6 = assay: SPR; Biacore T200; each Fab immobilised on a CM5 chip by amine coupling; increasing concentrations of free peptide injected; running buffer PBS with 0.005% Tween 20; global fit, steady-state analysis where dissociation was fast
# Fab C9 (rabbit) [5] = assay: SPR; Biacore T200; each Fab immobilised on a CM5 chip by amine coupling; peptides injected at increasing concentrations; running buffer PBS with 0.005% Tween 20; global fitting of the curves, or steady-state analysis where kinetic parameters could not be determined (fast dissociation, low affinity); remark: listed apart in the source
# Fab D6 (rabbit) [6] = assay: as above; remark: listed apart in the source
# Sequence of Fab C9 (rabbit) (heavy, as listed by the source, chain 1 of 2): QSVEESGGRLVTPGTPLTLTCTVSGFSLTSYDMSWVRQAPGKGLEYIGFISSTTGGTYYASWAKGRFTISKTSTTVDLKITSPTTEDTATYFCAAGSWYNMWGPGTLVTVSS
# Sequence of Fab C9 (rabbit) (light, as listed by the source, chain 2 of 2): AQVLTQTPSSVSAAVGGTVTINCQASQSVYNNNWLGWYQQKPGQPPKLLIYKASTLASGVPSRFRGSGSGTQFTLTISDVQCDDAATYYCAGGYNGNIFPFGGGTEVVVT
# Sequence of Fab D6 (rabbit) (heavy, as listed by the source, chain 1 of 2): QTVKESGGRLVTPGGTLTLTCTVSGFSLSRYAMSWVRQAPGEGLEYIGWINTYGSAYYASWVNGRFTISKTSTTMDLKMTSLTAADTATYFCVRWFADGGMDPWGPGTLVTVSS
# Sequence of Fab D6 (rabbit) (light, as listed by the source, chain 2 of 2): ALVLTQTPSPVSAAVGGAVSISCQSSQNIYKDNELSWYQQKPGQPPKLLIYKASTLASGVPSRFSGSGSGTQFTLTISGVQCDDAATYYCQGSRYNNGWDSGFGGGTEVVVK
# Sequence of Fab F9 (rabbit) (heavy, as listed by the source, chain 1 of 2): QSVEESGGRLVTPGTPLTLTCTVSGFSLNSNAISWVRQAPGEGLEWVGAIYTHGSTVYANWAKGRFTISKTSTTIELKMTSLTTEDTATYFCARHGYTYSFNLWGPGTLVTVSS
# Sequence of Fab F9 (rabbit) (light, as listed by the source, chain 2 of 2): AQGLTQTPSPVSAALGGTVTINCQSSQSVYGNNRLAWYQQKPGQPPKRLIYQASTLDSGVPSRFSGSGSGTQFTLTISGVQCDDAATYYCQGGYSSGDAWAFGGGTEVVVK
# Sequence of E6 Fab (rabbit) (heavy, as listed by the source, chain 1 of 2): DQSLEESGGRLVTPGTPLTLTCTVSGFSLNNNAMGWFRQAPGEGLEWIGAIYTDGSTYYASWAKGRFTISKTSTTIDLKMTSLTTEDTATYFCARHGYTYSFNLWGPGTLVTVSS
# Sequence of E6 Fab (rabbit) (light, as listed by the source, chain 2 of 2): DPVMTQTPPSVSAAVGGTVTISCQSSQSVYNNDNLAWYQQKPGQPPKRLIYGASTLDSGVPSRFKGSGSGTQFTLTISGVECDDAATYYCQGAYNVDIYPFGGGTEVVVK
Kd (Fab C9 (rabbit) [1]) [µM],Kd (Fab D6 (rabbit) [2]) [µM],Kd (C9 Fab (rabbit)) [µM],Kd (D6 Fab (rabbit)) [µM],Kd (E6 Fab (rabbit)) [µM],fold difference in association rate constant against F9 (E6 Fab (rabbit)) [fold],Kd (F9 Fab (rabbit)) [µM],koff (Fab C9 (rabbit) [1]) [s⁻¹],kon (Fab C9 (rabbit) [1]) [M⁻¹ s⁻¹],koff (Fab D6 (rabbit) [2]) [s⁻¹],kon (Fab D6 (rabbit) [2]) [M⁻¹ s⁻¹],Kd (Fab E10 (rabbit) [3]) [µM],koff (Fab E6 (rabbit)) [s⁻¹],kon (Fab E6 (rabbit)) [M⁻¹ s⁻¹],koff (Fab F9 (rabbit)) [s⁻¹],kon (Fab F9 (rabbit)) [M⁻¹ s⁻¹],Kd (Fab E10 (rabbit) [4]) [µM],"Kd (F9, C9, E6, and D6) [µM]",Kd (Fab C9 (rabbit) [5]) [µM],Kd (Fab D6 (rabbit) [6]) [µM],Binder
0.0111,0.0591,,,,,,,,,,,,,,,,,,,NPIFEKFGK(Me3)GGTYP-NH2 [Methylated MAP3K2 peptide in which the C terminus was amidated]
,,0.014,0.054,0.0009,> 100,0.3,0.006,480000,0.096,1.9e+06,37,0.0029,3.4e+06,0.098,330000,39,,,,"NPIFEKFGK(Me3)GGTYP [Methylated MAP3K2 peptide, …(me3)GGTYP]"
440,140,,,,,,,,,,40,,,,,36,0.3,690,180,"NPIFEKFGKGGTYP [MAP3K2 peptide, …]"
